# Laboratory results published in patent US20220332795A1.
# Molecular target: human serum albumin (human) (UniProt P02768)
# Experiment: primary solution ELISA screen
# Chain of human serum albumin (human) (P02768 25-609 limits assumed): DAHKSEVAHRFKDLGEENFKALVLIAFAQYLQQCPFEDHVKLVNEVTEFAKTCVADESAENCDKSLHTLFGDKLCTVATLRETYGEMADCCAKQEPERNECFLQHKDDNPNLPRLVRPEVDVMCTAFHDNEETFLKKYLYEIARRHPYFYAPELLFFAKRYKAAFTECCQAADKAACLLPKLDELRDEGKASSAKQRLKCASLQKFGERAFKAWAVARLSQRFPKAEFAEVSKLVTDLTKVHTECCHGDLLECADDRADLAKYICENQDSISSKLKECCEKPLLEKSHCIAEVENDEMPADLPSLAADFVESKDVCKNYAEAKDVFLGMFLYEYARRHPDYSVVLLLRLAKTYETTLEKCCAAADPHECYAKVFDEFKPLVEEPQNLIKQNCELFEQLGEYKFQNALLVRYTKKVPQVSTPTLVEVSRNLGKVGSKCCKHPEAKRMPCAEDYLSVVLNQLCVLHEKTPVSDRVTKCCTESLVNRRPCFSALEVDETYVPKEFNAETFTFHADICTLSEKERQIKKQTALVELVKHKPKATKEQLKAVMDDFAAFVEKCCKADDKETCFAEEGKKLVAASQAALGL
row,RLU,Binder
1,9850 RLU,"SEQ ID NO 81 (designed binder, not shown: small tags and cut ends) MLPAPKNLVVSRVTEDSARLSWQGVARAFDSFLITYVELRHLGEAIVLTVPGSERSYDLTGLKPGTEYPVWIQGVKGGSPSAPLSAEFTT"
2,87200 RLU,"SEQ ID NO 94 (designed binder, not shown: small tags and cut ends) MLPAPKNLVVSEVTEDSARLSWQGVARAFDSFLITYREQIFAGEVIVLTVPGSERSYDLTGLKPGTEYPVWIQGVKGGSPSAPLSAIFTT"
3,127000 RLU,"SEQ ID NO 84 (designed binder, not shown: small tags and cut ends) MLPAPKNLVVSRVTEDSARLSWQGVARAFDSFSILYLELTPKGEAIVLTVPGSERSYDLTGLKPGTEYPVWIQGVKGGSPSAPLSAEFTT"
4,24600 RLU,"SEQ ID NO 13 (designed binder, not shown: small tags and cut ends) MLPAPKNLVVSRVTEDSARLSWTAPDAAFDSFLIAYPEDGFRGEAIVLTVPGSERSYDLTGLKPGTEYPVPILGVKGGGGSGPLSAIFTT"
5,6500 RLU,"SEQ ID NO 89 (designed binder, not shown: small tags and cut ends) MLPAPENLVVSRVTEDSARLSWTAPDAAFDSFWIEYYEGVIQGEAIVLTVPGSERSYDLTGLKPGTEYFVAIWGVKGGKWSVPLSAIFTT"
6,24200 RLU,"SEQ ID NO 88 (designed binder, not shown: small tags and cut ends) MLPAPKNLVVSRVTEDSARLSWTAPDAAFDSFPIKYREVLRCGEAIVLTVPGSERSYDLTGLKPGTEYTVPITGVKGGFGSSPLSAIFTT"
7,6350 RLU,"SEQ ID NO 85 (designed binder, not shown: small tags and cut ends) MLPAPKNLVVSRVTEDSARLSWTAPDAAFDSFIIEYFEPIPIGEAIVLTVPGSERSYDLTGLKPGTEYAVNIYGVKGGYLSHPLSAIFTT"
8,12400 RLU,"SEQ ID NO 90 (designed binder, not shown: small tags and cut ends) MLPAPKNLVVSRVTEDSARLSWQGVARAFDSFLITYREQIFAGEVIVLTVPGSERSYDLTGLKPGTEYPVWIQGVKGGSPSAEFTT"
9,6500 RLU,"SEQ ID NO 97 (designed binder, not shown: small tags and cut ends) MLPAPKNLVVSRVTEDSARLSWTAPDAAFDSFHIWYEEETTIGEAIYLHVPGSERSYDLTGLKPGTEYEVHITGVKGGPYSRPLFANFTT"
10,14800 RLU,"SEQ ID NO 82 (designed binder, not shown: small tags and cut ends) MLPAPKNLVVSRVTEDSARLSWTAPDAAFDSFLIPYAETSPSGEAIVLTVPGSERSYDLTGLKPGTEYSVLIHGVKGGDYSSPLSAIFTT"
11,111000 RLU,"SEQ ID NO 83 (designed binder, not shown: small tags and cut ends) MLPAPKNLVVSRVTEDSARLSWTAPDAAFDSFPIAYAEPRPDGEAIVLTVPGSERSYDLTGLKPGTEYSVLIHGVKGGLLSSPLSAISTT"
12,49000 RLU,"SEQ ID NO 12 (designed binder, not shown: small tags and cut ends) MLPAPKNLVVSRVTEDSARLSWTAPDAAFDSFFIPYAEPSPTGEAIVLTVPGSERSYDLTGLKPGTEYSVLIHGVKGGHLSDPLSAISTT"
13,9850 RLU,"SEQ ID NO 99 (designed binder, not shown: small tags and cut ends) MLPAPKNLVVSRVTEDSARLSWTAPDAAFDSFFIPYAEPSPTGEAIVLTVPGSERSYDLTGLKPGTEYSVLIHGVKGGHLSDPLSVIFTT"
14,4750 RLU,"SEQ ID NO 93 (designed binder, not shown: small tags and cut ends) MLPAPKNLVVSRVTEDSARLSWTAPDAAFDSFAIEYYEPVPAGEAIYLDVPGSERSYDLTGLKPGTEYDVTIYGVKGGYYSHPLFASFTT"
15,15200 RLU,"SEQ ID NO 96 (designed binder, not shown: small tags and cut ends) MSLPAPKNLVVSRVTEDSARLSWTAPDAAFDSFPIAYLEVFYEGEAIVLTVPGSERSYDLTGLKPGTEYQVPIEGVKGGAMSLPLSAIFTT"
16,3650 RLU,"SEQ ID NO 87 (designed binder, not shown: small tags and cut ends) MLPAPKNLVVSRVTEDSARLSWTAPDAAFDSFAIEYTEFLYSGEAIVLTVPGSERSYDLTGLKPGTEYGVPINGVKGGFVSPPLSAIVTT"
